According to patent US20230416410A1:

Legend:
[1] = biological target: Fc gamma receptors on bovine alveolar macrophages; experiment: cell-based or functional assay
[2] = biological target: recombinant bovine FcRn (bovine) (UniProt F6R592); experiment: SPR Biacore, bFcRn on SA sensor, pH 6, 25 C
[3] = biological target: recombinant bovine FcRn (bovine) (UniProt F6R592); experiment: SPR Biacore, bFcRn on SA sensor, pH 6, 25 C; remark: listed apart in the source
[4] = biological target: recombinant bovine Fcg2R (bovine); experiment: SPR Biacore, bFcg2R amine-coupled on CM5, pH 7.4, 15 C
Chain of recombinant bovine Fcg2R (bovine) (main, as listed by the source): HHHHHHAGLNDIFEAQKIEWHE

[5] = biological target: recombinant bovine FcRn (bovine) (UniProt F6R592); experiment: SPR Biacore, bFcRn on SA sensor, pH 7.4, 25 C
[6] = biological target: recombinant bovine FcRn (bovine) (UniProt F6R592); experiment: SPR Biacore, bFcRn, pH 6; against bIgG1a and bIgG3a mAbs
[7] = biological target: recombinant bovine FcRn (bovine) (UniProt F6R592); experiment: SPR Biacore, bFcRn on SA sensor, pH 7.4, 25 C; remark: listed apart in the source

Chain of recombinant bovine FcRn (bovine) (chain, as listed by the source, chain 1 of 2): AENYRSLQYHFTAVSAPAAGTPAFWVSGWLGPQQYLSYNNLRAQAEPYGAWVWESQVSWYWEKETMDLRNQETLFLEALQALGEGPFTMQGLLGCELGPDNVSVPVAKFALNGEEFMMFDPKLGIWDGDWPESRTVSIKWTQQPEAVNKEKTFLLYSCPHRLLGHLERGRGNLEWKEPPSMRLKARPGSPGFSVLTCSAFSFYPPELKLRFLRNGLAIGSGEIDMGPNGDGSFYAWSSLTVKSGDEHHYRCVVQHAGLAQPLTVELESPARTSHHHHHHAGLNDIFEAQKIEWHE
Chain of recombinant bovine FcRn (bovine) (P01888 21-118, chain 2 of 2): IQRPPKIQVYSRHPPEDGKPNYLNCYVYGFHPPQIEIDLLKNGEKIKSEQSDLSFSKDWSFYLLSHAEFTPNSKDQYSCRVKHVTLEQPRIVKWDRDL

CTLA4bG2a (from UniProt Q9XSI1 36-161) (Fc fusion)
ADCP EC50 Value [1]: 0.014 µg/mL

bIgG2a wildtype mAb (antibody)
Kd [2]: 3.06 nM
Kd [3]: 0.254 nM
Kd [4]: 13.3 nM
Kd [5]: 147 nM
fold higher affinity than bIgG1a and bIgG3a [6]: 10 fold
Kd [7]: 131 nM

CTLA4 Fc bIgG3a (from UniProt Q9XSI1 36-161) (Fc fusion)
ADCP EC50 Value [1]: 0.029 µg/mL

CTLA4 Fc bIgG1a (from UniProt Q9XSI1 36-161) (Fc fusion)
ADCP EC50 Value [1]: 0.003 µg/mL
